Laboratory results taken from patent US20240425589A1, “CYTOTOXICITY-INDUCING THERAPEUTIC AGENT FOR USE IN TREATMENT OF CANCER” (CHUGAI SEIYAKU KABUSHIKI KAISHA, priority 2021, published 2024).

Legend:
recombinant cyno CD137 = recombinant cyno CD137 (Macaca fascicularis, UniProt A9YYE7); assay: Biacore 8K SPR affinity to cyno CD137; format: binding, cynomolgus; conditions: cyno CD137, 37 degree C, pH 7.4
Procedure: The binding affinity of the anti-CLDN6/Dual-Fab tri-specific antibody against recombinant human and cyno CD3eg (gamma and epsilon subunits of CD3) at pH 7.4 was determined at 25 degree C. using Biacore 8K instrument (GE Healthcare). The binding affinity of the anti-CLDN6/Dual-Fab tri-specific antibody against recombinant human and cyno CD137 at pH 7.4 was determined at 37 degree C. using Biacore 8K instrument (GE Healthcare). Anti-human Fc (GE Healthcare) antibody was immobilized onto all flow cells of a CM4 sensor chip using amine coupling kit (GE Healthcare). Tested antibody and analytes were prepared in ACES pH 7.4 containing 20 mM ACES, 150 mM NaCl, 0.05% Tween 20, 0.005% NaN3. Anti-CLDN6/Dual-Fab tri-specific antibody was captured onto the sensor surface by anti-human Fc. Antibody capture levels were aimed at 300 resonance unit (RU). Recombinant CD3eg and CD137 were injected at both 500 and 2000 nM, followed by dissociation. Sensor surface was regenerated each cycle with 3M MgCl2. […] Binding affinities were determined by processing and fitting the data to 1:1 binding model using Biacore Insight Evaluation software (GE Healthcare).

OVCAR3 = OVCAR3 xenograft in huNOG mice, combination with carboplatin; format: in vivo; conditions: 56 days after transplantation; CS4135 0.1 mg/kg iv days 38, 45 (sequential: 48, 55), carboplatin 60 mg/kg ip days 38, 45
Procedure: In this test, NOG (huNOG) mice (described in the aforementioned Example 13) transplanted with ovarian cancer cell line OVCAR3 and human CD34-positive cells were used. The OVCAR3 cell line was transplanted subcutaneously to the right flank of the mice, and the mice were divided into groups 38 days after transplantation. Individuals whose tumor volume reached 119 to 210 mm^3 were divided into groups. Vehicle 1 and CS4135 were administered into the mouse tail vein 38 and 45 days after transplantation. PBS containing 0.05% Tween-20 was used as Vehicle 1. Vehicle 2 and carboplatin (Bristol Myers Squibb Company) were administered intraperitoneally to the mice 38 and 45 days after transplantation. Physiological saline was used as Vehicle 2.
Tumor volume was measured 38, 42, 45, 48, 52, and 56 days after transplantation, and the average tumor volume was indicated for each group. The tumor volume was calculated by the following equation: […]
(§1) Tumor Growth Inhibition (TGI) was calculated by the following equation: […]

NIH:OVCAR-3 = assay: OVCAR3 xenograft in huNOG mice, combination with irinotecan hydrochloride; format: in vivo; conditions: 60 days after transplantation; CS4135 0.1 mg/kg, irinotecan hydrochloride 25 mg/kg, iv days 39, 46
Procedure: In this test, NOG(huNOG) mice (described in the aforementioned Example 13) transplanted with ovarian cancer cell line NIH:OVCAR-3 (OVCAR3, ATCC) and human CD34-positive cells were used. The OVCAR3 cell line was transplanted subcutaneously to the right flank of the mice, and the mice were divided into groups 39 days after transplantation. Individuals whose tumor volume reached 160 to 263 mm^3 were divided into groups. Vehicle 1 and CS4135 were administered into the mouse tail vein 39 and 46 days after transplantation. PBS containing 0.05% Tween-20 was used as Vehicle 1. Vehicle 2 and irinotecan hydrochloride (Sawai Pharmaceutical Co., Ltd.) were administered into the mouse tail vein 39 and 46 days after transplantation. Physiological saline was used as Vehicle 2.
Tumor volume was measured 39, 42, 46, 49, 53, 57, and 60 days after transplantation, and the average tumor volume is indicated for each group. The tumor volume was calculated by the following equation: […]
as §1

CLDN6-LLC1 = CLDN6-LLC1 syngenic model, combination with anti-mouse PD-L1 antibody; format: in vivo, hCD137 KI/hCD3Tg mice; conditions: 17 days after transplantation; CS4135 0.2 mg/kg iv day 6, anti-mouse PD-L1 antibody 10 mg/kg ip days 6, 8, 10, 12, 14, 17
Procedure: In this test, lung cancer cell line LLC1 forced to express claudin 6 (CLDN6) (CLDN6-LLC1) and hCD137 KI/hCD3Tg mice (described in the aforementioned Example 7) were used. The CLDN6-LLC1 cell line was transplanted subcutaneously to the right flank of the mice, and the mice were divided into groups 6 days after transplantation. Individuals whose tumor volume reached 104 to 140 mm^3 were divided into groups. The vehicle and the CS4135 antibody were administered into the mouse tail vein 6 days after transplantation. PBS containing 0.05% Tween-20 was used as the vehicle. The vehicle and anti-mouse PD-L1 antibody (BioX cell) were administered intraperitoneally to the mice 6, 8, 10, 12, 14, and 17 days after transplantation.
Tumor volume was measured 6, 10, 12, 14, and 17 days after transplantation, and the average tumor volume was indicated for each group. The tumor volume was calculated by the following equation: […]
as §1

UWB1.289 = assay: LDH release cytotoxicity on olaparib-treated UWB1.289; format: cell-based; conditions: UWB1.289, olaparib 3 μM three days vs DMSO, human PBMC
Procedure: The effect of the enhanced induction of CLDN6 expression in BRCA1-deficient ovarian cancer cell line UWB1.289, caused by the PARP inhibitor (olaparib), on the cytotoxic activity of anti-CLDN6/Dual-Fab tri-specific antibody CS4135 was assessed.
BRCA1-deficient ovarian cancer cell line UWB1.289 (ATCC) or BRAC1 wildtype ovarian cancer cell line OV-90 (ATCC) which express human CLDN6 were used as target cells.
Each target cell (3×10^5 cells) were seeded at 5 mL into a 25 cm^2-flask. Two flasks were prepared for each target cell. After culturing overnight, olaparib was added at a final concentration of 3 μM to one of the two flasks. DMSO was added to the other flask. After incubating the flasks for three days, the target cells were recovered, and the cytotoxic activity of the CS4135 antibody was evaluated by […] (LDH) release assay using human PBMC as the effector cell.

Chain of recombinant cyno CD137 (A9YYE7 1-254): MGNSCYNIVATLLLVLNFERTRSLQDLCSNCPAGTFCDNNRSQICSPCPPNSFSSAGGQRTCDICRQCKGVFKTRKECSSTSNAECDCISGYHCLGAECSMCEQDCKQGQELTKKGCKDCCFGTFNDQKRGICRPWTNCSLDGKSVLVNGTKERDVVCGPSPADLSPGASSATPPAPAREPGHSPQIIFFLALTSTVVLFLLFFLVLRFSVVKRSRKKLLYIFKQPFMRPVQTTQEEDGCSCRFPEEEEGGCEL

B1: PPU4135: anti-CLDN6/Dual-Fab tri-specific antibody, chains SEQ ID NOs 42, 51, 56, 69; CS4135 same antibody (protein)
chain 1: QVQLVESGGGVVQPGGSLRLSCAASGFTFSSYTMSWVRQAPGQGLEWMGTISSGGGRTYYPDSVKGRFTISRDNSKNTLYLQMNSLRDEDTAVYYCARGDYRYDGFAYWGEGTLVTVSSASTKGPSVFPLAPSSKSTSGGTAALGCLVEDYFPEPVTVSWNSGALTSGVHTFPAVLESSGLYSLSSVVTVPSSSLGTQTYICNVNHKPSNTKVDKRVEPKSCDKTHTCPPCPAPEAAGGPSVFLFPPKPKDTLMISRTPEVTCVVVDVSHEDPEVKFNWYVDGVEVHNAKTKPREEQYASTYRVVSVLTVLHQDWLNGKEYKCKVSNKALPAPIEKTISKAKGQPREPQVYTLPPSREEMTKNQVSLTCLVKGFYPSDIAVEWESNGQPENNYKTTPPVLDSDGSFFLYSKLTVDKSRWQQGNVFSCSVMHEALHNHYTQESLSLSP
chain 2: DIQMTQSPSSLSASVGDRVTITCRASYNIDSYLAWYQQKPGKAPELLIYYSTLLVDGVPDRFSGSRSGTDFTLTISSLQPEDFATYYCQHYYSIPYTFGQGTKVEIERTVAAPSVFIFPPSDEQLKSGTAKVVCLLNNFYPREAKVQWKVDNALQSGNSKESVTEQDSKDSTYSLSSTLTLSKADYEKHKVYACEVTHQGLSSPVTKSFNRGEC
chain 3: QVQLVESGGGLVQPGRSLRLSCAASGFKFSNVWFHWVRQAPGKGLEWVAQIKDYYNAYAAYYAPSVKGRFTISRDDSKNSIYLQMNSLKTEDTAVYYCHYVHYASASTLLPAEGVDAWGQGTTVTVSSASTKGPSVFPLAPSSKSTSGGTAALGCLVKDYFPEPVTVSWNSGALTSGVHTFPAVLKSSGLYSLSSVVTVPSSSLGTQTYICNVNHKPSNTKVDKRVEPKSCDKTHTCPPCPAPEAAGGPSVFLFPPKPKDTLMISRTPEVTCVVVDVSHEDPEVKFNWYVDGVEVHNAKTKPREEQYASTYRVVSVLTVLHQDWLNGKEYKCKVSNKALPAPIEKTISKAKGQPREPQVYTLPPSRKEMTKNQVSLTCLVKGFYPSDIAVEWESNGQPENNYKTTPPVLDSDGSFFLYSKLTVDKSRWQQGNVFSCSVMHEALHNHYTQKSLSLSP
chain 4: DIVMTQSPLSLPVTPGEPASISCQPSQEVVHMNRNTYLHWYQQKPGQAPRLLIYKVSNRFPGVPDRFSGSGSGTDFTLKISRVEAEDVGVYYCAQGTSHPFTFGQGTKLEIKRTVAAPSVFIFPPSDEQLKSGTAEVVCLLNNFYPREAKVQWKVDNALQSGNSEESVTEQDSKDSTYSLSSTLTLSKADYEKHKVYACEVTHQGLSSPVTKSFNRGEC
- ka (recombinant cyno CD137): 8350 M⁻¹ s⁻¹
- kd (recombinant cyno CD137): 0.00146 s⁻¹
- Tumor growth inhibition: TGI (OVCAR3): 18%
- Tumor growth inhibition: TGI (NIH:OVCAR-3): −2%
- Tumor growth inhibition: TGI (CLDN6-LLC1): 71%
- cytotoxic activity after addition of olaparib (UWB1.289): enhancement of cytotoxicity
